# Experimental data reported in IntAct's records for PubMed 17567753.
# B1: Lysine-specific demethylase 4A (Homo sapiens), O75164 (parent)
# chain: MASESETLNPSARIMTFYPTMEEFRNFSRYIAYIESQGAHRAGLAKVVPPKEWKPRASYDDIDDLVIPAPIQQLVTGQSGLFTQYNIQKKAMTVREFRKIANSDKYCTPRYSEFEELERKYWKNLTFNPPIYGADVNGTLYEKHVDEWNIGRLRTILDLVEKESGITIEGVNTPYLYFGMWKTSFAWHTEDMDLYSINYLHFGEPKSWYSVPPEHGKRLERLAKGFFPGSAQSCEAFLRHKMTLISPLMLKKYGIPFDKVTQEAGEFMITFPYGYHAGFNHGFNCAESTNFATRRWIEYGKQAVLCSCRKDMVKISMDVFVRKFQPERYKLWKAGKDNTVIDHTLPTPEAAEFLKESELPPRAGNEEECPEEDMEGVEDGEEGDLKTSLAKHRIGTKRHRVCLEIPQEVSQSELFPKEDLSSEQYEMTECPAALAPVRPTHSSVRQVEDGLTFPDYSDSTEVKFEELKNVKLEEEDEEEEQAAAALDLSVNPASVGGRLVFSGSKKKSSSSLGSGSSRDSISSDSETSEPLSCRAQGQTGVLTVHSYAKGDGRVTVGEPCTRKKGSAARSFSERELAEVADEYMFSLEENKKSKGRRQPLSKLPRHHPLVLQECVSDDETSEQLTPEEEAEETEAWAKPLSQLWQNRPPNFEAEKEFNETMAQQAPHCAVCMIFQTYHQVEFGGFNQNCGNASDLAPQKQRTKPLIPEMCFTSTGCSTDINLSTPYLEEDGTSILVSCKKCSVRVHASCYGVPPAKASEDWMCSRCSANALEEDCCLCSLRGGALQRANDDRWVHVSCAVAILEARFVNIAERSPVDVSKIPLPRFKLKCIFCKKRRKRTAGCCVQCSHGRCPTAFHVSCAQAAGVMMQPDDWPFVVFITCFRHKIPNLERAKGALQSITAGQKVISKHKNGRFYQCEVVRLTTETFYEVNFDDGSFSDNLYPEDIVSQDCLQFGPPAEGEVVQVRWTDGQVYGAKFVASHPIQMYQVEFEDGSQLVVKRDDVYTLDEELPKRVKSRLSVASDMRFNEIFTEKEVKQEKKRQRVINSRYREDYIEPALYRAIME
# Variants of: B1
# Settings: with h31t_human H3-4, Q16695
row,Variant,effect of a mutation on the interaction
1,G165A;G170A,disrupting interaction strength
2,G133A;G138A,disrupting interaction strength

# Variants of: B1
# Settings: with h31t_human H3-4, Q16695
# Remark: another data set of the same source
row,Variant,effect of a mutation on the interaction
1,D135A,decreasing interaction
2,K241L,disrupting interaction
3,K241A,disrupting interaction
4,Q88A,decreasing interaction
5,N290A,disrupting interaction
6,N290D,disrupting interaction
7,N290V,disrupting interaction
8,N290I,disrupting interaction
9,Y175F,decreasing interaction
10,Y177F,decreasing interaction
11,Y177L,disrupting interaction
12,N86A,decreasing interaction
